To fix the notation:
B1: Syn-Ang-VEGFR-15: fused protein synergibody SAITAng-2-3 × DTN11VEGFR-2-5, peptide at C-terminal of heavy chain (protein)
heavy (part 1 of 2): DVQLVESGGGLVQPGGSRKLSCAASGFTFSSFGMHWVRQAPEKGLEWVAYISSDSSTIYYADTVKGRFTISRDNPKNTLFLQMTSLRSEDTAMYYCAREGGYDDYYAMDYWGQGTSVTVSS
heavy (part 2 of 2): PGSQGYCHLNMRYQWICDSE
light: DIQMTQSPASQSASLGESVTITCLASQTIGTWLAWYQQKPGKSPQLLIYAATSLADGVPSRFSGSGSGTKFSFKISSLQAEDFVSYYCQQLYSIPLTFGGGTKLEIK
modifications: left off: a dimerising Fc or GST
notes: fused protein synergibody SAITAng-2-3 × DTN11VEGFR-2-5, peptide at C-terminal of heavy chain
B2: Syn-Ang-VEGFR-16: fused protein synergibody SAITAng-2-4 × DTN6VEGFR-2-1, peptide at C-terminal of heavy chain (protein)
heavy (part 1 of 2): QVQLQQSGAELARPGASVKLSCKASGYTFTDYYINWAKQRTGQGLEWIGEIYPGSGDTYYNEKFKGKATLTADKSSSTAYMQLSSLTSEDSAVYFCARYGYKGVYFDYWGQSTTLTVSS
heavy (part 2 of 2): TGSDDLCYTFPCMHY
light: ENVLTQSPAIMAASLGQKVTMTCSASSSVSSSYLHWYQQKSGASPKPLIHRTSNLASGVPARFSGSGSGTSYSLTISSVEAEDDATYYCQQWSGYPFTFGAGTKLELK
modifications: left off: a dimerising Fc or GST
notes: fused protein synergibody SAITAng-2-4 × DTN6VEGFR-2-1, peptide at C-terminal of heavy chain
B3: Syn-Ang-VEGFR-19: fused protein synergibody SAITAng-2-4 × DTN10VEGFR-2-4, peptide at C-terminal of heavy chain (protein)
heavy (part 1 of 2): QVQLQQSGAELARPGASVKLSCKASGYTFTDYYINWAKQRTGQGLEWIGEIYPGSGDTYYNEKFKGKATLTADKSSSTAYMQLSSLTSEDSAVYFCARYGYKGVYFDYWGQSTTLTVSS
heavy (part 2 of 2): TGSGRMCDGSGPPTNCWFT
light: ENVLTQSPAIMAASLGQKVTMTCSASSSVSSSYLHWYQQKSGASPKPLIHRTSNLASGVPARFSGSGSGTSYSLTISSVEAEDDATYYCQQWSGYPFTFGAGTKLELK
modifications: left off: a dimerising Fc or GST
notes: fused protein synergibody SAITAng-2-4 × DTN10VEGFR-2-4, peptide at C-terminal of heavy chain
B4: Syn-Ang-VEGFR-18: fused protein synergibody SAITAng-2-4 × DTN9VEGFR-2-3, peptide at C-terminal of heavy chain (protein)
heavy (part 1 of 2): QVQLQQSGAELARPGASVKLSCKASGYTFTDYYINWAKQRTGQGLEWIGEIYPGSGDTYYNEKFKGKATLTADKSSSTAYMQLSSLTSEDSAVYFCARYGYKGVYFDYWGQSTTLTVSS
heavy (part 2 of 2): EAGAYWCKAWGLSPCLVT
light: ENVLTQSPAIMAASLGQKVTMTCSASSSVSSSYLHWYQQKSGASPKPLIHRTSNLASGVPARFSGSGSGTSYSLTISSVEAEDDATYYCQQWSGYPFTFGAGTKLELK
modifications: left off: a dimerising Fc or GST
notes: fused protein synergibody SAITAng-2-4 × DTN9VEGFR-2-3, peptide at C-terminal of heavy chain
B5: Syn-Ang-VEGFR-17: fused protein synergibody SAITAng-2-4 × DTN8VEGFR-2-2, peptide at C-terminal of heavy chain (protein)
heavy (part 1 of 2): QVQLQQSGAELARPGASVKLSCKASGYTFTDYYINWAKQRTGQGLEWIGEIYPGSGDTYYNEKFKGKATLTADKSSSTAYMQLSSLTSEDSAVYFCARYGYKGVYFDYWGQSTTLTVSS
heavy (part 2 of 2): EAGKETCGYEWQYCPRP
light: ENVLTQSPAIMAASLGQKVTMTCSASSSVSSSYLHWYQQKSGASPKPLIHRTSNLASGVPARFSGSGSGTSYSLTISSVEAEDDATYYCQQWSGYPFTFGAGTKLELK
modifications: left off: a dimerising Fc or GST
notes: fused protein synergibody SAITAng-2-4 × DTN8VEGFR-2-2, peptide at C-terminal of heavy chain
B6: Syn-Ang-VEGFR-20: fused protein synergibody SAITAng-2-4 × DTN11VEGFR-2-5, peptide at C-terminal of heavy chain (protein)
heavy (part 1 of 2): QVQLQQSGAELARPGASVKLSCKASGYTFTDYYINWAKQRTGQGLEWIGEIYPGSGDTYYNEKFKGKATLTADKSSSTAYMQLSSLTSEDSAVYFCARYGYKGVYFDYWGQSTTLTVSS
heavy (part 2 of 2): PGSQGYCHLNMRYQWICDSE
light: ENVLTQSPAIMAASLGQKVTMTCSASSSVSSSYLHWYQQKSGASPKPLIHRTSNLASGVPARFSGSGSGTSYSLTISSVEAEDDATYYCQQWSGYPFTFGAGTKLELK
modifications: left off: a dimerising Fc or GST
notes: fused protein synergibody SAITAng-2-4 × DTN11VEGFR-2-5, peptide at C-terminal of heavy chain

In this experiment the test system is HUVEC. The experiment in a line: Cell-based functional assay, endothelial cell tube formation (BD BioCoat Angiogenesis System). On the set-up: species or system human. The conditions noted are these: 5 μM fused protein synergibody, 18 hours; unrelated control group 12,227 ± 1,232. Here is the method: Chimeric antibodies may be screened by functional assays such as cell-based assay for inhibition activity. In this example, BD BioCoat™ Angiogenesis System-Endothelial Cell Tube Formation (BD Biosciences) is used. BD Falcon 96-well Black/Clear plate coated with BD Matrigel Matrix that had been stored at −20° C. is slowly melted at 4° C. for 6 hours, and the mat cover of the plate is removed inside a sterile clean bench. Then it is left at 37° C. , 5% CO2 for 30 minutes so that the Matrigel™ Matrix would form polymers. Then it is made into a suspension by treating HUVEC, cultured on a petridish containing EGM-2 MV (Lonza) medium added with 10% fetal bovine serum to 70 to 80% confluence, with 0.5% Trypsin-EDTA (Gibco). Then it is resuspended in a culture medium containing 10% fetal bovine serum to a cell concentration of 4×10^5 cells/ml. At this time, 5 μM of each anti-Ang-2 chimeric antibodies expressed and purified in Section 5 above are also added and resuspended. Then 50 μl (about 2×10^4 cells) of each of the suspension is added to each well of the plate and incubated at 37° C. , 5% CO2 for 18 hours. Then the medium is removed and each well is washed twice with 100 μl of Hanks' balanced salt solution (HBSS, Invitrogen) ensuring that the tubes of the cells formed on BD Matrigel™ Matrix are not damaged. 50 μl of calcein AM (BD sciences) dissolved in HBSS at the concentration of 8 μg/ml is added to each well. The plate is then left to react at 37° C., 5% CO2 for 30 minutes and the calcein AM (BD sciences) solution is removed and washed twice with HBSS. Lastly, an image of the length of the entire tube of HUVEC formed on BD Matrigel™ Matrix is obtained on a fluorescent microscope and analyzed by using MetaMorph® software (Universal Imaging Corporation™, http://www.moleculardevices.com).
The peptides synthesized in Section 6A above are screened by cell-based functional assay for inhibition activity. The method described in Example 1, Section 7 is used, except that 5 μM synthesized peptides are added instead of anti-Ang-2 antibodies.
The fused protein synergibodies prepared in Section 1 above are screened using cell-based functional assay for inhibition activity. The method described in Example 1, Section 7 is used, except that, in this example, 5 μM of fused protein synergibodies are added instead of anti-Ang-2 antibodies.
B1: the “Length of entire tube of HUVEC (2 × 10^4 cells) (pixels)” value (shortened to “Length of entire tube of HUVEC”) is 4,116 ± 815 pixels. In the case of B2, the “Length of entire tube of HUVEC” value is 5,022 ± 809 pixels.

Consider B3, for which the “Length of entire tube of HUVEC” value is listed as 5,329 ± 822 pixels. On to B4, for which the “Length of entire tube of HUVEC” value is 5,723 ± 736 pixels. For B5, the “Length of entire tube of HUVEC” value is 5,215 ± 714 pixels. As to B6, the “Length of entire tube of HUVEC” value is 5,512 ± 699 pixels.

These data come from patent US20110076723A1, “ANTIBODY-PEPTIDE FUSED SYNERGIBODY” (SAMSUNG ELECTRONICS CO., LTD., priority 2008, published 2011).
